According to the nanobody polyreactivity screen of Harvey et al. (2022):

Test: yeast display, Sf9 membrane polyspecificity reagent, FACS + sequencing; frameworks hold sequencing errors
Outline: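 Galactose-induced (36–48 hours) yeast carrying a synthetic nanobody display library were exposed to 10% biotinylated, detergent-solubilized Sf9 membrane reagent at 4 °C for 1 hour. FACS followed streptavidin microbead enrichment, using low and high (top ~1%) gates for expression (anti-HA) and reagent binding (streptavidin). Colony PCR, MiSeq 2 × 250 sequencing and CDR-length filtering followed. Labels for polyreactivity reflect the gate of origin.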

Sequence | polyreactivity (PSR sort gate)
QVQLVESGGGLVQAGGSLRLSCAASGNTFYGYSMGWYRQAPGKERELVASITLSGDSTYYADSVKGRFTISRDNAKNTVYLQMNSLKPEDTAVYYCARRSRESYEYDYWGQGTQVTVSS | low polyreactivity
QVQLVESGGGLVQAGGSLRLSCAASGHIFGGNAMGWYRQAPGKEMELVATISSGGSTHYADSVKGRFTISRDNAKNTVYLQMHSLKPEDTAVYYCAARRSYRATAYKYDYWGQGTHVTVSS | low polyreactivity
QVQIVESGGGLVQAGGSLRLSCAASGNTISYYDMGWYRQAPGKERELVADISSGGSTYYADSLKGRFTISRDNAKNTVYLQMNSLKPEDTAVYYCNAVVYIRGTAGTYYYWGQGTQVTVSS | high polyreactivity
QVQLVESGGGLVQAGGSLRLSCAASGYIFKYNAMGWYIQAPGKERELVAAISGRGGSTYYADSVKGRFTISRDNAKNTVYLQMNSLKPEDTAVYYCNADYQARRYNYWGQGTQVTVSS | high polyreactivity
QVQLVESGGGLVQAGGSLRLSCAASGFIFSVNTMGWYRQAPGKERELVAAISSSSGRTYYADSVKGRFTISRDNAKNTVYLQMNSLKPEDTAVYYCAVLYRWFGAYETYDYLGQGTQVTVSS | high polyreactivity
QVHLVESGGGLVQAGGSLRLSCAASGFIFRRYAMGWYRQAPGKERELVAAITSSGTSTYYADSVKGRFTISRDNAKNTVYLQMNSLKPEDAAVYFCNRDNYVRWIREDFDYWGQGTQVTVSS | high polyreactivity
QVQLVESGGGLVQAGGSLRLSCAASGRTFRFTAMGWYRQAPGKERELVAAISFRGGSTYYADSVKGRFTISRDNAKNTVYLQMNSLKPEDTAVYYCAARARTGTYRDMYYWGQGTQVTVSS | high polyreactivity
QVQLVESGGGLVQAGGSLRLSCAASRNNYPYYAMGWSRQEPGKERELVAAISGSGERTYYADSVKGRFTISRDNAKNTVFLQMNSLKPEDTAVYYCAAYRRYYGWYEYWGQGTLVTVSS | high polyreactivity
QVQLVESGGGLVQAGGSLRLSCAASGRIFASYTMGWYRQAPGKETELVAAISWRGDGTYYADSVKGRFTISRDYAKNTVYLQMNSLKPEDTAVYYCAADYVYYYHEYDYWGQGTQVTVSS | low polyreactivity
QVQLVESGGGLVQAGGSLRLSCAASGSIFIRYAMGWYRQAPGKERELVAAITRSGGSTYYADSVKGRFTISRDNAKNTVYLQMNSLKPEDTAVYYCNVLLRRNGYFARGDYWGQGTQVTVSS | high polyreactivity
QGQLVESGGGLGQAGGSLRLSCAASGSTSGIYAMGWYRQAPGKERELVAAIDTSGGSSYADSVKGRFTISRDNAKHTVYLQMNSLKPEDTAVYYCAKPFCSNSWSHGYWGQGTQVTVSS | low polyreactivity
QDQLVESGGGLVQAGGSLRLSCAASGRTFLRYTMGWYRQAPGTETELVADITNGGTRTYYADSVKGRFTFSRDYAKNTVYLQMNRLKPEDTAVYYCGARVRYTANYDYWGQGTQVTVSS | high polyreactivity
QVQLEESGAGLVQAGGRLRLSCAASGITFILYAMGWYRHAPGKERELVAAISSGGRTKYADSEKGRFTISRDNAKNTVYLQMTSLKPEDTAVYYCNVSYLVYRWNFGWSMDYWGQGTQVTVSS | low polyreactivity
QVQHVESRGCLLQAGGSLRLSCAASGITFRYYTMGWYRQAPGKESELVAAITWSGSSTYYAVSVKGRFTISRDNAKNTVYLQMNSLKPEHTAVYYCAKPYHQRSAKVDYWGQGTQVTVSS | low polyreactivity
QVQLVESGGGLGQAGGSLRLSCAASGRIFGVYGMGWYRQAPGNDRELVAAITLAGRTNYADSVKGRFTISRDNAKNTVYLQMNSLKPQDTAVYYCAAEKRKLFQGVARYRYEDWGQGTQVTVSS | low polyreactivity
QVQLVESGGGLVQAGGSLSLSCAASGSILPYNTMGWDRQAPGKERELVAAITSGVGSTYADSVKGRFTISRDNAKNTVYLQMNSLKPEDTAVYYCNASESAIPIGDLGDYWGQGTQVTVSS | low polyreactivity
QVQLVESGGGLVQAGGSLRLSCAASGGIFRKYVMGWYRQAPGKERELVAAISTSGGSTYYADSVKGRFTISRDNAKNSVYLQMNSLKPEDTAVYYCAADILYFYGPRVFEFNYWGQGTQVTVSS | high polyreactivity
QVQLVESGGGLVQAGGSLRLSCAASGFIFDSYAMGWYRQAPGKERELVAAISWSGGRTYYADSVKGRFTISRDNAKNTVFLQMNSLKPEDSAVYYCAADTWFGMDYWGQGTEVTVSS | high polyreactivity
QVQLVESGGGLVQAGGSLRLSCAASGGSFPDNARGWYRQAPGKERELVAAISFSGSSTYADSVKGRFTISRDNAKKTVNLQMNSLKPEDTAVYYCNTDGYIYRYRFDYWGQGTQVTVSS | low polyreactivity
QVQLVESGGGLVQAGCSLRLSCAASGSIFSTYAMGWYRQAPGKERELVAAITSDGTYADSVKGRFTISRDNARNTVYLQMNSLKPEDTAVYYWAAYYPYTRHGDYWGQGTQVTVSS | low polyreactivity
QVQLVESGGGLVQAGGSLRLICAASGITFVEYSMGWYRQAPGKERDLVAAISWSGVRTRYADSVKGRFTISRDNAKNTVYLQMNSLKPEDTAVYYCYTVPRGGGGVRILDYWGQGTQVTESS | high polyreactivity
QVQLVESGGGLVQAGGSLRLSCAASGSIFAYYAMGWYRQAPGKERELVAAISRRAGTTYYADSVKGRFTISRDNAKNTVYLQMNSLKPEDTAVYYCAKVSSVWYPRVDYWGQGTQVTVSS | low polyreactivity

Sequence | polyreactivity (PSR sort gate)
QVQLVESGGGLVQAGGSLRLSCAASASIFDHYAMGCYRQAPGKARELVAAITWDGTSTYYADSVKGRFTISRDNAKNTVYLQMNSLKPEDTAVYYCADDFYPYSWEEVDYWGQGTQVTVSS | low polyreactivity
QVQLVESGGGLVQAGGSLRLSCAASGIIFDTYVMGWYRQAPGKERELVAAITRSGGRTRYADSVKGRFTISRDNAKNTVYLQMNSLKPEDTAVYYCAARIPDRQDGYGYWGQGTQVTVSS | high polyreactivity
QEQLQESGGGLVQAGGSLRLSCAASGIIFDWFFMGWYRQAPGREREFVAAITYGATTNYADSVKGRFTISRDNGKNTVYLQMNSLKPEDTAVYYCAAVRGRGGTHAYWGQGTQVTVSG | low polyreactivity
QVQLVESGGGLVQAGGSLRLSCAASGSTFRDYAMGWYRQAPGKERELVAAITQNGGSTYYADSVKGRFTISRDNAKNSVYLQMNSLKPEDTAVYDCAADSDWFVWQEDYWGQGTQVTVSS | low polyreactivity
QVQLVESGGGLVQAGGSLRLSCAASGFIFFTNTMGWYRQAPGKEWELVAAINSNGGRTYYADSVKGRFTISRDNAKNTVYLQMNSLKPEDTAVYYCAARSVGGVARLDYWGQGTQVTVSS | low polyreactivity
QVQLVESGGGLVQAGGSLRLSCAASGSIFDNNAMGWYRQSPGKEREFVAAISWIGGSTSYADSVKGRFTISSDNAKNTVYLQMNSLKPEDTAVYYCNSLRYYPYGLPIYDYWGQGTQVTVSS | low polyreactivity
QVQLVESGGGLVQAGGSLRLSCAASGITFAKYAMGWYRQAPGKERELVAAISTSGGSTYYADSVKGRFTISRDNAKNTVYLQMYSLKPEDTAVYYCNVDTYIWYYLRYYNYWGQGTQVTVSS | high polyreactivity
QVQLVESGGGLVQAGGSLRLSCAASGIIFPYYAMGWYRQAPGKERELVAGISSSGGITYADSVKGRFTISRDNAKNTVYLQMNSLKPEDTAVYYCNAEYQWLEYDFWGQGTQVTVSS | low polyreactivity
QVHLVESGGGLVQAGGSLRLSFAADGSSFVRYAMGWYRQAPGKEREFVAAISRTGGSTYYADSVKGRFTLSRDNAKNTVYLQMNSLKQEVTAVFYCDARYIRGYDYWGQGTKVTVSS | high polyreactivity
QVQLVESAGGLVQAGGSLSLSCAASGRTFIRHAMGRDRQAPGKERELVAAINSGGITNYADSVKGRFTISRVNAKNTVFLKRNSLKPEDTAVYYCAAYKPWYVGLYPWYDYWGQGTQVTVSW | low polyreactivity
QVQLVESGGGLVQAGGSLRLSCAASGLTFYVYAMGWYRQAPGKERELVAAISSGGRTYYADSVKGRFTISRDNAKNTVYLQMNSLKPEDTAVYYCAAVRHRNYGYWGQGTQVTVSS | high polyreactivity
QVQLVESGGGLVQARGSLRLSCAASGFIFLYNAMGWYRQAPGKERELLAAITSSGGTTYYADSVKGRFTISRDNAKNTVYLQMNSLKPEDTAVYYCAARYTGRNGGSNTPEYDYWVQGTQVTVSS | low polyreactivity
QVQLVESAGGLVQAGGSLRLSCAASAFTFRWYDMGWYRQAPGKERELVAAIDASDGSTYYSDSVKGSFTISRDNPKNTVYLPMNSLKPEDTAVYYCATRLRGGGKGYYYWGQGTQVTVSS | high polyreactivity
QVQLVESGGGLVQAGGSLRLSCAASGSIFPYAMGWYRQSPGKQRQLVAVISWSGASTYYADSVKGRFTISRDNAKNTVDLQMNSLKPEDTAVYYCAVYRYYKLVHLYGYDYWGQGTQVTVSS | high polyreactivity
QVQLVESGGGLVQSGASLRLSCAASGRISRFNAMGWYRQAPGKERELVAAISSGGSTHYADSVKGRFTISRDNAKITVYLQMNSLKPEDTAVYYCAASVYRWWRLEAYYYWGQGSQVTVSS | high polyreactivity
QVQLVESGGGLVQAVGSLRLSCAASGSTLYRYALGWYRQAPGKARELDAAISSSGGSTYYADSVKGRFTISRDNAKNTVYLQMNSLKPEDTEVYYCARVARASGVRWYYYWGQGTQVTVSS | high polyreactivity
QVQLVESGGGLVQAGGSLRLSCAASGLTFRTYTMGWYRQAPGKERELVAAISSSGSTKYADSVKGRFTISRDNAKNTVYLQMICLKPEDTAVYYCAARGRIYFTQYGYWGQVTQVTVSS | high polyreactivity
QVQLVESGGGLVQAGGSLRLSCAASGRILKSYAMGWYRQAPGKERELVAAITSSGVSTYYADSVKGRFTISRDNAKNTVYLQMNSLKPEDTAVYYCAARNYRYPIMGYWGQGTEVTVSS | high polyreactivity
QVQLVESGGGLVQAGGSLRLSCAASGSISTNYAMGWYRQAPGKERELVAAISSSGGSTYYADSVKGRFTISRDNAKNTVYLQMNSLKPEDTAVYYCRYKFGYWGQGTQVTVSS | high polyreactivity
QVQLVESGGGLVQAGGSLRLICAASGSIFRINAMGWYRQAPGKEMELVAAITGRVGSTYYADSVKGRFTISRDNAKNTVYLQMNSLKPEDTAVYYCAARAGSSRYTREYRYDYWGQGTQVTVSS | high polyreactivity
QVQLVESGGGLVQAGGSLRLSCAASGLIISWYAMGWNRQEPGTERELVAAISSGGSTTYADSVKGRFTISRDNAKNTVYLQMNSLKPEDTAVYYCNADQVFGYNYWGQGTQLTVSS | high polyreactivity
